Results reported in patent publication US20180193423A1 (LONGEVITY BIOTECH, published 2018).
Where two headings read alike, the source gives them in different places. Primed or numbered codes have the meaning given here. Where no end group is shown, it is not given here. [ ]: non-standard residue; d: D form. APC″ = 3-aminopyrrolidine-4-carboxylic acid (cyclic β-amino acid); ACPC″ = 2-aminocyclopentanecarboxylic acid (x in the sequences); APC = 3-aminopyrrolidine-4-carboxylic acid; ACPC = 2-aminocyclopentanecarboxylic acid; β3hY = N[C@H](CC(=O)O)Cc1ccc(O)cc1; β3hR = N=C(N)NCCC[C@H](N)CC(=O)O; β3hT = C[C@@H](O)[C@H](N)CC(=O)O; β3hQ = NC(=O)CC[C@H](N)CC(=O)O; β3hN = NC(=O)C[C@H](N)CC(=O)O; β3hL = CC(C)C[C@H](N)CC(=O)O; β3hK = NCCCC[C@H](N)CC(=O)O; β3hV = CC(C)[C@H](N)CC(=O)O; Aib = CC(C)(N)C(=O)O; βAla = NCCC(=O)O

T1: VPAC1 receptor (UniProt P32241 31-457, limits assumed)
T1 sequence (looked up): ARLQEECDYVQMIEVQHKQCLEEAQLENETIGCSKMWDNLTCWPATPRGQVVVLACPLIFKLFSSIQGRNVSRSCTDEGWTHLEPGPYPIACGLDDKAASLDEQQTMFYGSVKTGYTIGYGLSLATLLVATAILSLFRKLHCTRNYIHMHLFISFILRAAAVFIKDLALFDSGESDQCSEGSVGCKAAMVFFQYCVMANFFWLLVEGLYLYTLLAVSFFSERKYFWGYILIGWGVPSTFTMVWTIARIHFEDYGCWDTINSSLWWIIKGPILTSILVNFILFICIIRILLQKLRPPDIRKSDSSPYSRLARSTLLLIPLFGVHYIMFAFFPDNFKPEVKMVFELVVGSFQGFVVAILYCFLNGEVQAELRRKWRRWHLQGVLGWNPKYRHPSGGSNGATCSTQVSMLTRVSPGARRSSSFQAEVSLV

T2: VPAC2 receptor (UniProt P41587 24-438, limits assumed)
T2 sequence (looked up): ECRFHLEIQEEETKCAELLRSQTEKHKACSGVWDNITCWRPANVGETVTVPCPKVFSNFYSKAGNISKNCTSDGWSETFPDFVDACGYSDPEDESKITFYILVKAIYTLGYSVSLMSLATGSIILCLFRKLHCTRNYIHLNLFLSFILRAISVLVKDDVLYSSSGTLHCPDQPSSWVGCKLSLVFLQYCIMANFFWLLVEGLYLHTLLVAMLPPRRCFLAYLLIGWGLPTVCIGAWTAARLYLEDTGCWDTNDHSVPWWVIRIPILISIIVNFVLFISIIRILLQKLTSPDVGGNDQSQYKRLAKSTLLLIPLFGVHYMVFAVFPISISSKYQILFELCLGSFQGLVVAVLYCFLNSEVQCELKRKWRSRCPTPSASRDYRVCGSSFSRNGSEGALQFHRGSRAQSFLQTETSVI


What was measured:
Test in all cases: cell-based or functional assay
VPAC1 receptor [1] = target: T1, VPAC1 receptor
VPAC2 receptor [2] = target: T2, VPAC2 receptor
VPAC1 receptor [3] = target: T1, VPAC1 receptor; remark: listed apart in the source
VPAC2 receptor [4] = target: T2, VPAC2 receptor; remark: listed apart in the source

| EC 50 vpac1 (Molar), cell-based cAMP assay (VPAC1 receptor [1]) [nM] | EC50 vpac2 (Molar), cell-based cAMP assay (VPAC2 receptor [2]) [nM] | EC 50 vpac1 (Molar), cell-based cAMP assay (VPAC1 receptor [3]) [nM] | EC50 vpac2 (Molar), cell-based cAMP assay (VPAC2 receptor [4]) [nM] | Binder |
| --- | --- | --- | --- | --- |
| 293 | 1.27 |  |  | Ac-H[ACPC]DA[β3hV]FTENYTKLR[β3hK]QLAA[APC]KY[ACPC]NDL[β3hK]KG[βAla]T (not fully specified (C-terminus); printed as Ac-HxDAvFTENYTKLRkQLAAzKYxNDLkKGgT) [LBT-V213] |
| 785 | 1.17 |  |  | Ac-H[ACPC″]DA[ACPC″]FTE[ACPC″][β3hY]TKLRKQ[β3hL]AA[APC″]KY[ACPC″]NDL[β3hK]KG[βAla]T (not fully specified (C-terminus); printed as Ac-HxDAxFTExyTKLRKQlAAzKYxNDLkKGgT) [LBT-V217] |
| 1420 | 1.33 |  |  | Ac-H[ACPC″]DA[β3hV]FTENYTK[β3hL]RKQLAA[APC″]KY[ACPC″]NDL[β3hK]KG[βAla]T (not fully specified (C-terminus); printed as Ac-HxDAvFTENYTKlRKQLAAzKYxNDLkKGgT) [LBT-V215] |
| 461 | > 1000 |  |  | Ac-H[ACPC″]DA[ACPC″]FTE[ACPC″][β3hY]TKLR[β3hK]QLAA[APC″]KY[ACPC″]NDL[β3hK]KG[βAla]T (not fully specified (C-terminus); printed as Ac-HxDAxFTExyTKLRkQLAAzKYxNDLkKGgT) [LBT-V219] |
| > 1000 | 1.02 |  |  | Ac-H[ACPC″]DA[ACPC″]FTE[ACPC″][β3hY]TKLRK[β3hQ]LAA[APC″]KY[ACPC″]NDL[β3hK]KG[βAla]T (not fully specified (C-terminus); printed as Ac-HxDAxFTExyTKLRKqLAAzKYxNDLkKGgT) [LBT-V218] |
| 932 | 95.6 |  |  | Ac-H[ACPC″]DA[ACPC″]FTE[β3hN][β3hY]TKLRKQLAA[APC″]KY[ACPC″]NDL[β3hK]KG[βAla]T (not fully specified (C-terminus); printed as Ac-HxDAxFTEnyTKLRKQLAAzKYxNDLkKGgT) [LBT-V216] |
| 0.195 | 0.0784 |  |  | Ac-HSDAVFTDNYTRLRKQ[ACPC″]AAK[APC″]YL[ACPC″]SIK[β3hN]KRY (not fully specified (C-terminus); printed as Ac-HSDAVFTDNYTRLRKQxAAKzYLxSIKnKRY) [LBT-V221] |
| > 1000 | 1.37 |  |  | Ac-H[ACPC″]DA[β3hV]FTENYTKL[β3hR]KQLAA[APC″]KY[ACPC″]NDL[β3hK]KG[βAla]T (not fully specified (C-terminus); printed as Ac-HxDAvFTENYTKLrKQLAAzKYxNDLkKGgT) [LBT-V214] |
| 9.51 | 0.422 |  |  | Ac-HSDAVFTENYTKLRKQ[ACPC″]AAK[APC″]YL[ACPC″]DLK[β3hK]GGT (not fully specified (C-terminus); printed as Ac-HSDAVFTENYTKLRKQxAAKzYLxDLKkGGT) [LBT-V220] |
| 1530 | 3.52 |  |  | Ac-H[ACPC]DA[β3hV]FTENYTKLRK[β3hQ]LAA[APC]KY[ACPC]NDL[β3hK]KG[βAla]T (not fully specified (C-terminus); printed as Ac-HxDAvFTENYTKLRKqLAAzKYxNDLkKGgT) [LBT-V212] |

More lines, now with the values behind:

| Binder | EC 50 vpac1 (Molar), cell-based cAMP assay (VPAC1 receptor [1]) [nM] | EC50 vpac2 (Molar), cell-based cAMP assay (VPAC2 receptor [2]) [nM] | EC 50 vpac1 (Molar), cell-based cAMP assay (VPAC1 receptor [3]) [nM] | EC50 vpac2 (Molar), cell-based cAMP assay (VPAC2 receptor [4]) [nM] |
| --- | --- | --- | --- | --- |
| Ac-HSDAVFTENYTKLRKQLAA[APC]KY[ACPC]NDL[β3hK]KG[βAla]T (not fully specified (C-terminus); printed as Ac-HSDAVFTENYTKLRKQLAAzKYxNDLkKGgT) [LBT-V202] | > 1000 | 0.963 |  |  |
| Ac-HSDAVFTENYTKLRKQ[ACPC]AA[APC]KYL[ACPC]DL[β3hK]KGGT (not fully specified (C-terminus); printed as Ac-HSDAVFTENYTKLRKQxAAzKYLxDLkKGGT) [LBT-V203] | 218 | 0.18 |  |  |
| Ac-H[ACPC]DA[ACPC]FTE[ACPC]YTKLRKQLAA[APC]KY[ACPC]NDL[β3hK]KG[βAla]T (not fully specified (C-terminus); printed as Ac-HxDAxFTExYTKLRKQLAAzKYxNDLkKGgT) [LBT-V209] | > 1000 | 5.58 |  |  |
| Ac-H[ACPC]DA[β3hV]FTENYTKLRKQLAA[APC]KY[ACPC]NDL[β3hK]KG[βAla]T (not fully specified (C-terminus); printed as Ac-HxDAvFTENYTKLRKQLAAzKYxNDLkKGgT) [LBT-V210] | 1420 | 0.859 |  |  |
| H[ACPC]DAVFTDNY[β3hT]RLR[β3hK]QLA[β3hV]KKY[β3hL]NAI[β3hL]N (not fully specified (C-terminus); printed as HxDAVFTDNYtRLRkQLAvKKYlNAIlN) [LBT-V102] |  |  | 5.66 | 4900 |
| Ac-H[ACPC]DA[ACPC]FTENYTKLRKQLAA[APC]KY[ACPC]NDL[β3hK]KG[βAla]T (not fully specified (C-terminus); printed as Ac-HxDAxFTENYTKLRKQLAAzKYxNDLkKGgT) [LBT-V208] | 133 | 0.646 |  |  |
| Ac-H[Aib]DA[β3hV]FTE[β3hN]YTKLRKQLAA[APC]KY[ACPC]NDL[β3hK]KG[βAla]T (not fully specified (C-terminus); printed as Ac-HBDAvFTEnYTKLRKQLAAzKYxNDLkKGgT) [LBT-V206] | > 1000 | 3.47 |  |  |
| Ac-HSDAVFTENYTKLRKQLA[ACPC]KKY[ACPC]ND[β3hL]KKG[βAla]T (not fully specified (C-terminus); printed as Ac-HSDAVFTENYTKLRKQLAxKKYxNDlKKGgT) [LBT-V201] | 9.09 | 104 |  |  |
| Ac-H[ACPC]DA[β3hV]FTENYTKLRKQ[β3hL]AA[APC]KY[ACPC]NDL[β3hK]KG[βAla]T (not fully specified (C-terminus); printed as Ac-HxDAvFTENYTKLRKQlAAzKYxNDLkKGgT) [LBT-V211] | > 1000 | 1.26 |  |  |
| Ac-H[ACPC]DAVFTENYTKLRKQLAA[APC]KY[ACPC]NDL[β3hK]KG[βAla]T (not fully specified (C-terminus); printed as Ac-HxDAVFTENYTKLRKQLAAzKYxNDLkKGgT) [LBT-V207] | > 1000 | 0.593 |  |  |
| Ac-H[Aib]DAVFTENYTKLRKQLAA[APC]KY[ACPC]NDL[β3hK]KG[βAla]T (not fully specified (C-terminus); printed as Ac-HBDAVFTENYTKLRKQLAAzKYxNDLkKGgT) [LBT-V204] | 516 | 0.529 |  |  |
| Ac-H[Aib]DA[β3hV]FTENYTKLRKQLAA[APC]KY[ACPC]NDL[β3hK]KG[βAla]T (not fully specified (C-terminus); printed as Ac-HBDAvFTENYTKLRKQLAAzKYxNDLkKGgT) [LBT-V205] | > 1000 | 0.816 |  |  |
